Data reported in article PMC11074156.

How the values were obtained:
[1] = target: ZIKV E protein expressed from pcDNA3.1+_19CprME-Zika (with prM); assay: co-immunoprecipitation (GFP trap beads), western blot band quantitation; details: HEK293T/17 cells, 48 h post transfection; parent: est. 1.0; read off a plot
[2] = target: ATF6 (activating transcription factor 6), endogenous (UniProt P18850); assay: as above; details: HEK293T/17 cells, 48 h post transfection; parent: est. 1.0; read off a plot
Sequence of ATF6 (activating transcription factor 6), endogenous (P18850 whole entry): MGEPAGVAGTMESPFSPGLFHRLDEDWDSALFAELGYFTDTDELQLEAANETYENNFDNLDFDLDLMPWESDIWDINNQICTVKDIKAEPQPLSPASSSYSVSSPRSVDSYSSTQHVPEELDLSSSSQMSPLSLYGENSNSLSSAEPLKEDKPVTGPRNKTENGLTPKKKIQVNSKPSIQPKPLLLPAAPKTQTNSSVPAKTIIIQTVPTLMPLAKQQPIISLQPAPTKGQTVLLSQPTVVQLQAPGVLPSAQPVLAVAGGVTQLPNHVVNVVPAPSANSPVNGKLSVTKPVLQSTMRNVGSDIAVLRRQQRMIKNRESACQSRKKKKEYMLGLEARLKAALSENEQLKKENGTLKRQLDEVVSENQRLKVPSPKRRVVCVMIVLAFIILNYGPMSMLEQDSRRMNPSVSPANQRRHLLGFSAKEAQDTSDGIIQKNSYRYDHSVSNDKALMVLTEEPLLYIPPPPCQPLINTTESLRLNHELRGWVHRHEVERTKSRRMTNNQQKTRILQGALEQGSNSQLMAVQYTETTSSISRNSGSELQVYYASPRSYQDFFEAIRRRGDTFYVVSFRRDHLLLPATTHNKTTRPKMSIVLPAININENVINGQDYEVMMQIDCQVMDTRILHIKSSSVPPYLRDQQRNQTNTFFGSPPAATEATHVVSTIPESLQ

Sequence of EGFP-full length GRP78 (wild type), P11021 K585A (P11021 19-654 K585A): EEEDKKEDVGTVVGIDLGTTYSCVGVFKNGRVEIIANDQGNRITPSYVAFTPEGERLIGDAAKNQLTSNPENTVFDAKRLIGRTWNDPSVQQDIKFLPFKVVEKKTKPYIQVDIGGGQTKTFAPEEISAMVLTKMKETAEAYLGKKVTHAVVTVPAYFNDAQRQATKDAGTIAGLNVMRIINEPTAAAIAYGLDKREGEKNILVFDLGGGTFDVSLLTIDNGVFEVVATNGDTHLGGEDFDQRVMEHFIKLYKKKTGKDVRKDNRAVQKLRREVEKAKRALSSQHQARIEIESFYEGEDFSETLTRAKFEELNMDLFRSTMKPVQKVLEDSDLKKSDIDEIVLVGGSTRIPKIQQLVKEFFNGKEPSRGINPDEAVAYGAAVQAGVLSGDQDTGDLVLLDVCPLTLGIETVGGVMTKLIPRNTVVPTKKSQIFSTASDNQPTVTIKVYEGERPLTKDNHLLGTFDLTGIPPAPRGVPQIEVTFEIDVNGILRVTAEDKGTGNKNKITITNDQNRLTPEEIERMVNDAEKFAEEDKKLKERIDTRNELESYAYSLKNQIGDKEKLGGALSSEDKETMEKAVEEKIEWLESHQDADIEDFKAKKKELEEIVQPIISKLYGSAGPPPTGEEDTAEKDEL
Sequence of EGFP-full length GRP78 (wild type), P11021 T518A (P11021 19-654 T518A): as the sequence (P11021 19-654 K585A) above, with T500A, A567K counted along it
Sequence of EGFP-full length GRP78 (wild type), P11021 R470E (P11021 19-654 R470E): as the sequence (P11021 19-654 K585A) above, with R452E, A567K counted along it
Sequence of EGFP-full length GRP78 (wild type), P11021 V429Q (P11021 19-654 V429Q): as the sequence (P11021 19-654 K585A) above, with V411Q, A567K counted along it
Sequence of EGFP-full length GRP78 (wild type), P11021 K621A (P11021 19-654 K621A): as the sequence (P11021 19-654 K585A) above, with A567K, K603A counted along it
Sequence of EGFP-full length GRP78 (wild type), P11021 R492E (P11021 19-654 R492E): as the sequence (P11021 19-654 K585A) above, with R474E, A567K counted along it

“EGFP-full length GRP78 (wild type) (from UniProt P11021) H477E” was tested, and the ratio to parent [1] was 1.3.

For “EGFP-full length GRP78 (wild type) (from UniProt P11021) K585A”, the ratio to parent [1] was 1.

“EGFP-full length GRP78 (wild type) (from UniProt P11021) K621A” gave a ratio to parent [1] of 0.72.

For “EGFP-full length GRP78 (wild type) (from UniProt P11021) R492E”, the ratio to parent [1] was 0.47.

In the case of “EGFP-full length GRP78 (wild type) (from UniProt P11021) T518A”, the ratio to parent [1] is reported as 0.42.

Substance “EGFP-full length GRP78 (wild type) (from UniProt P11021) V429Q” has a ratio to parent [1] of 1.1.

With “EGFP-full length GRP78 (wild type), P11021 K585A” the ratio to parent [2] was 0.82.

Work on “EGFP-full length GRP78 (wild type), P11021 K621A” yielded a ratio to parent [2] of 0.82.

For “EGFP-full length GRP78 (wild type), P11021 R470E”, the ratio to parent [2] was 0.95.

“EGFP-full length GRP78 (wild type), P11021 R492E” gave a ratio to parent [2] of 0.28.

“EGFP-full length GRP78 (wild type), P11021 T518A” showed a ratio to parent [2] of 0.4.

Work on “EGFP-full length GRP78 (wild type), P11021 V429Q” yielded a ratio to parent [2] of 0.98.
